Reference: PMC6367035 (Nature, 2018)

B1: Sbh1 (S. cerevisiae) (natural protein, UniProt P52870 1-82, looked up)
chain: MSSPTPPGGQRTLQKRKQGSSQKVAASAPKKNTNSNNSILKIYSDEATGLRVDPLVVLFLAVGFIFSVVALHVISKVAGKLF
modifications: surface-exposed lysines modified with low-molecular weight polyethylenglycol (MS(PEG)12 methyl-PEG-NHS-ester)
B2: Sss1 (S. cerevisiae) (natural protein, UniProt P35179 1-80, looked up)
chain: MARASEKGEEKKQSNNQVEKLVEAPVEFVREGTQFLAKCKKPDLKEYTKIVKAVGIGFIAVGIIGYAIKLIHIPIRYVIV
modifications: surface-exposed lysines modified with low-molecular weight polyethylenglycol (MS(PEG)12 methyl-PEG-NHS-ester)
B3: Sec71 (S. cerevisiae) (natural protein, UniProt P33754 1-206, looked up)
chain: MSEFNETKFSNNGTFFETEEPIVETKSISVYTPLIYVFILVVSLVMFASSYRKKQAKKISEQPSIFDENDAHDLYFQIKEMSENEKIHEKVLKAALLNRGAESVRRSLKLKELAPQINLLYKNGSIGEDYWKRFETEVKLIELEFKDTLQEAERLQPGWVQLFVMVCKEICFNQALSRRYQSILKRKEVCIKEWELKINNDGRLVN
modifications: glycan (cleaved by Endoglycosidase H); surface-exposed lysines modified with low-molecular weight polyethylenglycol (MS(PEG)12 methyl-PEG-NHS-ester)

Molecular target: T1, Sec61 (S. cerevisiae) (S. cerevisiae, UniProt P32915 1-480, surface-exposed lysines modified with low-molecular weight polyethylenglycol (MS(PEG)12 methyl-PEG-NHS-ester))
T1 sequence (looked up): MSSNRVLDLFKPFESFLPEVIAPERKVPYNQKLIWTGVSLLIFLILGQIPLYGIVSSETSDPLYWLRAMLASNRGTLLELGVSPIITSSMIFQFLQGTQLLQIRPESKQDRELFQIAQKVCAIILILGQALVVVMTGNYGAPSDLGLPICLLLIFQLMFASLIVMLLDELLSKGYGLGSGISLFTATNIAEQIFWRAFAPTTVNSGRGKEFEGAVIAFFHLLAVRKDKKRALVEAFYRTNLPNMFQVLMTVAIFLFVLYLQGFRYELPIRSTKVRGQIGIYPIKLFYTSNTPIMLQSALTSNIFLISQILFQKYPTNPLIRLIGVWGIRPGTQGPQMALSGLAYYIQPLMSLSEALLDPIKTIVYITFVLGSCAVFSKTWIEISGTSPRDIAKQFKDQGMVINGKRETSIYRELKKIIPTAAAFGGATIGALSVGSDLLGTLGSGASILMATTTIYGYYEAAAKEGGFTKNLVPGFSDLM
Test: cryo-EM structure

Binding result, binds:
B1
B2
B3
